Measurements reported in PMC5372463, “Bacterial kinesin light chain (Bklc) links the Btub cytoskeleton to membranes” (Scientific Reports, 2017).

Target: T1, BtubA/B heterodimer (bacterial tubulin) from Prosthecobacter dejongeii (Prosthecobacter dejongeii, UniProt Q8GCC5 1-473; Q8GCC1 1-426)
T1 construct: The same preparation stood as soluble (non-polymerized) heterodimer or, in polymerization buffer with GTP, as filaments; the assay tells which; Construct was a gift from JM; Andreu; also called Btubs; Btub filaments; source: E. coli C41 (DE3), co-expressed from a bicistronic construct, purified (polymerization/depolymerization cycle, SEC)
T1 sequence (looked up) 1: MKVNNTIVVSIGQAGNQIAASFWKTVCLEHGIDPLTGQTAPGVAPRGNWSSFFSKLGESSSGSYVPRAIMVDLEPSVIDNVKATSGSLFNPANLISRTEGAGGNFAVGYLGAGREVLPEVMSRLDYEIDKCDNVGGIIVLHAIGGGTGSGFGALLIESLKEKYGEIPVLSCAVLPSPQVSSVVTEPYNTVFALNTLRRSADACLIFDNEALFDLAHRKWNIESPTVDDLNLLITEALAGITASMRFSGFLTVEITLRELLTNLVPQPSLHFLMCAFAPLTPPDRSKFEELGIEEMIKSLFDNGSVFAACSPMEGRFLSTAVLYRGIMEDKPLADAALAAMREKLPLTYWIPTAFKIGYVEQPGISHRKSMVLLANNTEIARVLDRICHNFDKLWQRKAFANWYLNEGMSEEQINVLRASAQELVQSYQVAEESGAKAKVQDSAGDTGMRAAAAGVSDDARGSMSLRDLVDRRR
T1 sequence (looked up) 2: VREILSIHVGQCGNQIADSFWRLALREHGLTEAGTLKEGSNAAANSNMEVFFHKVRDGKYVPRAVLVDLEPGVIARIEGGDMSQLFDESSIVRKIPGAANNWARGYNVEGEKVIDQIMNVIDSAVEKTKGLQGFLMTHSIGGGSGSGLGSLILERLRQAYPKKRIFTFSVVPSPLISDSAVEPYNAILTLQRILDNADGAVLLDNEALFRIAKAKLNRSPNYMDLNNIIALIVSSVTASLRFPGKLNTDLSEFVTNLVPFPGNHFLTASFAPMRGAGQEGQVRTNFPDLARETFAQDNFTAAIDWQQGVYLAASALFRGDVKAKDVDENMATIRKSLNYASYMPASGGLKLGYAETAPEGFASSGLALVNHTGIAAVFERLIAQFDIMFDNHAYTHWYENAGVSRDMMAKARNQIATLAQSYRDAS
Assay: co-sedimentation; 10 μM BtubA/B with 10 or 20 μM Bklc in polymerization buffer (20 mM TrisHCl pH 7.5, 300 mM potassium glutamate, 5 mM MgCl2, 1 mM EGTA, 2 mM GTP), 10 min 25 °C, 100.000 x g 30 min; pellet depolymerized at 4 °C (S2); densitometry of Coomassie gels
Conditions: both partners purified

B1: Bacterial kinesin light chain (Bklc) from Prosthecobacter vanneervenii, C-terminal poly-histidine tag (natural protein, UniProt A8Y5U5 1-256, looked up)
chain: MDTALERQIASASRSVEEARRLAYHDPIRVGALVEQISVLADLRQKEGDFRKAESLYREALFRAQELRKQDPDLLTGIYSLLAHLYDRWGRMDKAAEFYELALKISAENGLEESDKVATIKNNLAMIFKQLRKFERAEGYYCEALETFQRLDGEQSARVASVYNNLGVLYYSHMDVDRAQVMHERALAIRQNLHEGQMDPADLSQTFINLGAVYKAAGDFQKAEACVDRAKRIRAAMNGYHPNPRRSASLLIDKSL
notes: Bklc (bacterial kinesin light chain), Prosthecobacter vanneervenii; Uniprot id A8Y5U5_9BACT; GenBank CAP16140.1; the bklc gene was expressed from pHis17; Construct was a gift from M. Pilhofer; Monomer by SEC and AUC; also called Bklc-His; source: E. coli C41 (DE3), purified (Ni-NTA, SEC); not shown: His-tag, C-terminal, kept
stoichiometry N: ~1 Bklc monomer per BtubA/B heterodimer
